Test results taken from article PMC11117632.

Tests used:
[1] = system: inactivated SARS-CoV-2 virus (whole virion) (SARS-CoV-2 strain CN2); assay: ELONA; conditions: binding buffer 50 mM HEPES pH 7.4, 100 mM NaCl, 5 mM KCl, 2 mM MgCl2, 1 mM CaCl2; room temperature in SELEX, ELONA temperature not stated
[2] = system: inactivated SARS-CoV-2 virus (whole virion) (SARS-CoV-2 strain CN2); assay: ELONA competition; conditions: binding buffer 50 mM HEPES pH 7.4, 100 mM NaCl, 5 mM KCl, 2 mM MgCl2, 1 mM CaCl2; room temperature in SELEX, ELONA temperature not stated
[3] = system: inactivated SARS-CoV-2 virus (whole virion) (SARS-CoV-2 strain CN2); assay: EIS; conditions: 5' SH, 3 x iSp18 spacer; binding buffer 50 mM HEPES pH 7.4, 100 mM NaCl, 5 mM KCl, 2 mM MgCl2, 1 mM CaCl2; room temperature in SELEX, ELONA temperature not stated

GCAATGGTACGGTACTTCCATGGCTGGTGCTTGAGGTGTGTGTGGGGGTAGGGCCAAAAGTGCACGCTACTTTGCTAA [aptamer 6.9]
Kd [1]: 9.6 nM
binding signal (% signal decrease) [2]: 56

GCAATGGTACGGTACTTCCATGGCTGGTGCTTGAGGTGTGTGTGGGGGTAGGGCCAAAAGTGCACGCTACTTTGCTAA [thiolated aptamer 6.9]
binding signal (% impedance decrease) [3]: 40

GCAATGGTACGGTACTTCCCGGGGCGGGCTGTCATGCCCATCCTACCGTGACCGCAAAAGTGCACGCTACTTTGCTAA [aptamer 6.8]
Kd [1]: 21 nM
